B1: MIA2 (parent)
chain: NSISSDKEATVPCTEILTEKKDTI
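Note: lentivirally expressed fusions sorted by FACS into six bins by GFP to DsRed ratio, PSI derived from sequencing read proportions per bin multiplied by bin number.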

The data set covers variants of B1. Briefly: protein stability index of a GFP-peptide fusion (GPS, HEK-293T) (PSI 1-6); higher = more stable. To be noted: c terminus: a fixed tail appended.
For the variant NSISLDKEATVPCTEILTEKKDTI [S5L], the protein stability index worked out at 5.42.

NSISMDKEATVPCTEILTEKKDTI [S5M]: the protein stability index was found to be 5.23.

As to NSISGDKEATVPCTEILTEKKDTI [S5G], the protein stability index worked out at 5.42. The figure for NSISIDKEATVPCTEILTEKKDTI [S5I] is 5.17; for NSISADKEATVPCTEILTEKKDTI [S5A] it is 5.33. The figure for NSISVDKEATVPCTEILTEKKDTI [S5V] is 5.46; for NSISPDKEATVPCTEILTEKKDTI [S5P] it is 5.59; for NSISEDKEATVPCTEILTEKKDTI [S5E] it is 5.67. For the variant NSISHDKEATVPCTEILTEKKDTI [S5H], the protein stability index is 5.47. Take NSISFDKEATVPCTEILTEKKDTI [S5F]: the protein stability index was 4.94. As for NSISKDKEATVPCTEILTEKKDTI [S5K], the figure is 5.83; as for NSISWDKEATVPCTEILTEKKDTI [S5W], 5.17; as for NSISTDKEATVPCTEILTEKKDTI [S5T], 5.39. In the case of NSISCDKEATVPCTEILTEKKDTI [S5C], the protein stability index is 5.25.

As for NSISNDKEATVPCTEILTEKKDTI [S5N], the protein stability index came out at 5.69. As for NSISDDKEATVPCTEILTEKKDTI [S5D], the figure is 5.4. Take NSISRDKEATVPCTEILTEKKDTI [S5R]: the protein stability index is 4.71. For the variant NSISQDKEATVPCTEILTEKKDTI [S5Q], the protein stability index was 5.43.

On to NSISYDKEATVPCTEILTEKKDTI [S5Y], for which the protein stability index worked out at 5.23.

On to NSISSDCEATVPCTEILTEKKDTI [K7C], for which the protein stability index was found to be 5.31. The figure for NSISSDWEATVPCTEILTEKKDTI [K7W] is 5.05; for NSISSDIEATVPCTEILTEKKDTI [K7I] it is 5.27; for NSISSDLEATVPCTEILTEKKDTI [K7L] it is 5.52. In the case of NSISSDFEATVPCTEILTEKKDTI [K7F], the protein stability index worked out at 4.95. As for NSISSDHEATVPCTEILTEKKDTI [K7H], the figure is 5.38; as for NSISSDREATVPCTEILTEKKDTI [K7R], 5.07. On to NSISSDVEATVPCTEILTEKKDTI [K7V], for which the protein stability index came to 4.95. Regarding NSISSDDEATVPCTEILTEKKDTI [K7D], the protein stability index was determined as 5.4. The figure for NSISSDQEATVPCTEILTEKKDTI [K7Q] is 5.25.

On to NSISSDNEATVPCTEILTEKKDTI [K7N], for which the protein stability index came to 5.51.

In the case of NSISSDAEATVPCTEILTEKKDTI [K7A], the protein stability index stood at 5.07. In the case of NSISSDMEATVPCTEILTEKKDTI [K7M], the protein stability index was determined as 4.95. As for NSISSDYEATVPCTEILTEKKDTI [K7Y], the figure is 5.17; as for NSISSDGEATVPCTEILTEKKDTI [K7G], 5.8.

In the case of NSISSDEEATVPCTEILTEKKDTI [K7E], the protein stability index turned out to be 5.21. The figure for NSISSDSEATVPCTEILTEKKDTI [K7S] is 5.5; for NSISSDPEATVPCTEILTEKKDTI [K7P] it is 5.62; for NSISSDTEATVPCTEILTEKKDTI [K7T] it is 5.49.

With NSTSSDKEATVPCTEILTEKKDTI [I3T], the protein stability index worked out at 4.68. As for NSWSSDKEATVPCTEILTEKKDTI [I3W], the figure is 5.52; as for NSRSSDKEATVPCTEILTEKKDTI [I3R], 5.7. Turning to NSLSSDKEATVPCTEILTEKKDTI [I3L], the protein stability index turned out to be 5.02. Turning to NSYSSDKEATVPCTEILTEKKDTI [I3Y], the protein stability index came out at 5.58. As for NSMSSDKEATVPCTEILTEKKDTI [I3M], the figure is 5.45; as for NSVSSDKEATVPCTEILTEKKDTI [I3V], 5.45; as for NSSSSDKEATVPCTEILTEKKDTI [I3S], 5.42. As for NSQSSDKEATVPCTEILTEKKDTI [I3Q], the protein stability index is 5.6. As for NSNSSDKEATVPCTEILTEKKDTI [I3N], the figure is 5.7; as for NSPSSDKEATVPCTEILTEKKDTI [I3P], 5.36.

With NSISSFKEATVPCTEILTEKKDTI [D6F], the protein stability index was 4.84. In the case of NSISSWKEATVPCTEILTEKKDTI [D6W], the protein stability index was 4.62. The figure for NSISSVKEATVPCTEILTEKKDTI [D6V] is 5.14; for NSISSLKEATVPCTEILTEKKDTI [D6L] it is 5.06; for NSISSNKEATVPCTEILTEKKDTI [D6N] it is 5.42. As for NSISSSKEATVPCTEILTEKKDTI [D6S], the figure is 5.71. Take NSISSAKEATVPCTEILTEKKDTI [D6A]: the protein stability index was determined as 5.45. The figure for NSISSEKEATVPCTEILTEKKDTI [D6E] is 5.63. As for NSISSIKEATVPCTEILTEKKDTI [D6I], the figure is 4.98; as for NSISSYKEATVPCTEILTEKKDTI [D6Y], 4.71. Turning to NSISSCKEATVPCTEILTEKKDTI [D6C], the protein stability index worked out at 4.52. The figure for NSISSQKEATVPCTEILTEKKDTI [D6Q] is 5.12; for NSISSKKEATVPCTEILTEKKDTI [D6K] it is 5.2. In the case of NSISSMKEATVPCTEILTEKKDTI [D6M], the protein stability index was 5. On to NSISSGKEATVPCTEILTEKKDTI [D6G], for which the protein stability index turned out to be 5.28. With NSISSRKEATVPCTEILTEKKDTI [D6R], the protein stability index was found to be 4.9. The figure for NSISSHKEATVPCTEILTEKKDTI [D6H] is 4.89; for NSISSTKEATVPCTEILTEKKDTI [D6T] it is 5.31; for NSISSPKEATVPCTEILTEKKDTI [D6P] it is 5.35. As to NSISSDKCATVPCTEILTEKKDTI [E8C], the protein stability index turned out to be 5.27. The figure for NSISSDKDATVPCTEILTEKKDTI [E8D] is 5.5; for NSISSDKGATVPCTEILTEKKDTI [E8G] it is 5.37; for NSISSDKIATVPCTEILTEKKDTI [E8I] it is 5.32. Regarding NSISSDKHATVPCTEILTEKKDTI [E8H], the protein stability index stood at 4.91.

For the variant NSISSDKFATVPCTEILTEKKDTI [E8F], the protein stability index was 4.93. As for NSISSDKAATVPCTEILTEKKDTI [E8A], the figure is 5.07; as for NSIFSDKEATVPCTEILTEKKDTI [S4F], 4.76; as for NSIESDKEATVPCTEILTEKKDTI [S4E], 5.68. NSIASDKEATVPCTEILTEKKDTI [S4A]: the protein stability index came out at 5.41. Regarding NSITSDKEATVPCTEILTEKKDTI [S4T], the protein stability index was 5.25.

For NSIRSDKEATVPCTEILTEKKDTI [S4R], the protein stability index was 5.35. The figure for NSILSDKEATVPCTEILTEKKDTI [S4L] is 5.21; for NSIVSDKEATVPCTEILTEKKDTI [S4V] it is 5.32.

Consider NSINSDKEATVPCTEILTEKKDTI [S4N], for which the protein stability index came out at 5.18. Take NSIYSDKEATVPCTEILTEKKDTI [S4Y]: the protein stability index was found to be 5.44. The figure for NSICSDKEATVPCTEILTEKKDTI [S4C] is 5.67; for NSIKSDKEATVPCTEILTEKKDTI [S4K] it is 5.29; for NSIGSDKEATVPCTEILTEKKDTI [S4G] it is 4.98. As for NSIWSDKEATVPCTEILTEKKDTI [S4W], the figure is 5.11. As for NSIMSDKEATVPCTEILTEKKDTI [S4M], the figure is 5.43; as for NSIISDKEATVPCTEILTEKKDTI [S4I], 4.68; as for NSIDSDKEATVPCTEILTEKKDTI [S4D], 5.54. As for NSIHSDKEATVPCTEILTEKKDTI [S4H], the protein stability index stood at 5.5. As for NSIQSDKEATVPCTEILTEKKDTI [S4Q], the figure is 5.63.

On to NSIPSDKEATVPCTEILTEKKDTI [S4P], for which the protein stability index came out at 5.24.

(Values after the supplement of paper PMC10567573.)
